The results in this text go back to publication PMC5348764, “Functional differentiation of 3-ketosteroid Δ^1-dehydrogenase isozymes in Rhodococcus ruber strain Chol-4” (Microbial Cell Factories, 2017).

The target of data set [1] is T1, KstD2 (Rhodococcus ruber, UniProt I0B6I6).
T1 sequence (I0B6I6 1-564): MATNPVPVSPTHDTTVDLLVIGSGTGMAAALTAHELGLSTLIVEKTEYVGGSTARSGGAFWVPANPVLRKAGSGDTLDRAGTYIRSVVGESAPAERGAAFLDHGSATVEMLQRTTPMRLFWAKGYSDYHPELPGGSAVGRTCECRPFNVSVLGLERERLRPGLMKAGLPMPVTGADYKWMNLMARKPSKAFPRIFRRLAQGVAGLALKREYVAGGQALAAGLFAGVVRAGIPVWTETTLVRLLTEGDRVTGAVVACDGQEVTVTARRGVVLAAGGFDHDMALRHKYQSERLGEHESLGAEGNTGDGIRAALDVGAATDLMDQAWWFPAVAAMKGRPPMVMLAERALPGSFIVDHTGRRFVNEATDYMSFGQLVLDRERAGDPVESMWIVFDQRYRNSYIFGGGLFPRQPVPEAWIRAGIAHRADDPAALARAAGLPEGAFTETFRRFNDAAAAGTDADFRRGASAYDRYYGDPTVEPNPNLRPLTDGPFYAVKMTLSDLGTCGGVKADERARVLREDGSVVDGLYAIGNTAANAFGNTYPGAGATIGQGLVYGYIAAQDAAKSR
The data set is described as follows: DCPIP reduction at […] nm, cell-free extract, Michaelis-Menten fit. Particulars: read-out: KstD2 / Km; 80 µM DCPIP as electron acceptor, 50 mM Tris pH 7, 30 °C.

Data set [2] has as its target T2, KstD1 (Rhodococcus ruber, UniProt I0B6J0).
T2 sequence (I0B6J0 1-511): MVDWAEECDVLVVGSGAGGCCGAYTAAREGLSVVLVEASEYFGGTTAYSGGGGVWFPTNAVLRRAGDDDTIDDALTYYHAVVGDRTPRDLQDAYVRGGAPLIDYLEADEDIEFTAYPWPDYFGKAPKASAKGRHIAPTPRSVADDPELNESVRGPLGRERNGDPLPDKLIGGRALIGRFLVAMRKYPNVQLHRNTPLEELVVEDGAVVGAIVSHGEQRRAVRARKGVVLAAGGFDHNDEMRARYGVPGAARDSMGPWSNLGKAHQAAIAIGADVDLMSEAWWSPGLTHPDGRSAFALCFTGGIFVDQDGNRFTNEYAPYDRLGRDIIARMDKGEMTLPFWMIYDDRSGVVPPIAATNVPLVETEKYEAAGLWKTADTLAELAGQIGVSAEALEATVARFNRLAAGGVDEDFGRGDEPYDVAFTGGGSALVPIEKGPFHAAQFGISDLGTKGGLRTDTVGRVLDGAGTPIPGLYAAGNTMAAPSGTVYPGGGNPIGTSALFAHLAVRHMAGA
Described as above. Conditions: read-out: KstD1 / Km; 80 µM DCPIP as electron acceptor, 50 mM Tris pH 7, 30 °C.

Substrate in data set [3]: CC(=O)[C@H]1CC[C@H]2[C@@H]3CCC4=CC(=O)CC[C@]4(C)[C@H]3CC[C@]12C
Put plainly: cells, lysate or membranes. Particulars: 80 µM DCPIP as electron acceptor, 50 mM Tris pH 7, 30 °C.

Substrate in data set [4]: C[C@H](C(=O)O)[C@H]1CC[C@H]2[C@@H]3CCC4=CC(=O)CC[C@]4(C)[C@H]3CC[C@]12C
Put plainly: cells, lysate or membranes. Particulars: 80 µM DCPIP as electron acceptor, 50 mM Tris pH 7, 30 °C.

Substrate in data set [5]: C[C@]12CCC(=O)C=C1CC[C@@H]1[C@@H]2CC[C@]2(C)C(=O)CC[C@@H]12
The data set is described as follows: cells, lysate or membranes. Particulars: pH 7.0; 30.0 °C.

Substrate in data set [6]: C[C@]12CC[C@H]3[C@@H](CCC4=CC(=O)CC[C@@]43C)[C@@H]1CC[C@@H]2C(=O)CO
The data set is described as follows: cells, lysate or membranes. Particulars: 80 µM DCPIP as electron acceptor, 50 mM Tris pH 7, 30 °C.

Substrate in data set [7]: C[C@]12CC[C@H]3[C@@H](CCC4=CC(=O)CC[C@@]43C)[C@@H]1CC[C@@H]2O
Put plainly: cells, lysate or membranes. Particulars: pH 7.0; 30.0 °C.

Substrate in data set [8]: C[C@]12C[C@H](O)[C@H]3[C@@H](CCC4=CC(=O)CC[C@@]43C)[C@@H]1CC[C@@H]2C(=O)CO
Put plainly: cells, lysate or membranes. Particulars: 80 µM DCPIP as electron acceptor, 50 mM Tris pH 7, 30 °C.

Substrate in data set [9]: [H][C@@]12CCC3=CC(=O)CC[C@]3(CO)[C@@]1([H])CC[C@]1(C)C(=O)CC[C@@]21[H]
Put plainly: cells, lysate or membranes. Particulars: pH 7.0; 30.0 °C.

Substrate in data set [10]: C[C@]12CCC(=O)C[C@@H]1CC[C@@H]1[C@@H]2CC[C@]2(C)[C@@H](O)CC[C@@H]12
Put plainly: cells, lysate or membranes.

For `C[C@]12CCC(=O)C=C1CC[C@H]1[C@@H]3CCC(=O)[C@@]3(C)CC[C@@]12O` [9OHAD, 9α-hydroxy-4-androstene-3,17-dione], the Km in data set [1] turned out to be 543 ± 77.8 µM; in data set [2], 22.1 ± 7 µM.

B1: KstD1 (Rhodococcus ruber) (protein)
chain: MVDWAEECDVLVVGSGAGGCCGAYTAAREGLSVVLVEASEYFGGTTAYSGGGGVWFPTNAVLRRAGDDDTIDDALTYYHAVVGDRTPRDLQDAYVRGGAPLIDYLEADEDIEFTAYPWPDYFGKAPKASAKGRHIAPTPRSVADDPELNESVRGPLGRERNGDPLPDKLIGGRALIGRFLVAMRKYPNVQLHRNTPLEELVVEDGAVVGAIVSHGEQRRAVRARKGVVLAAGGFDHNDEMRARYGVPGAARDSMGPWSNLGKAHQAAIAIGADVDLMSEAWWSPGLTHPDGRSAFALCFTGGIFVDQDGNRFTNEYAPYDRLGRDIIARMDKGEMTLPFWMIYDDRSGVVPPIAATNVPLVETEKYEAAGLWKTADTLAELAGQIGVSAEALEATVARFNRLAAGGVDEDFGRGDEPYDVAFTGGGSALVPIEKGPFHAAQFGISDLGTKGGLRTDTVGRVLDGAGTPIPGLYAAGNTMAAPSGTVYPGGGNPIGTSALFAHLAVRHMAGA
In the case of B1, the Km in data set [3] was 27.9 ± 9.5 µM; in data set [4] it was 76.1 ± 15.7 µM; in data set [5], 34.2 ± 3.8 µM; in data set [6] it was 21.6 ± 4.5 µM; in data set [7], 28.8 ± 7.4 µM; in data set [8], 161.6 ± 7.6 µM. For the same molecule, in data set [9], the Km was 368.8 ± 102.4 µM.

B2: KstD2 (Rhodococcus ruber) (protein)
chain: MATNPVPVSPTHDTTVDLLVIGSGTGMAAALTAHELGLSTLIVEKTEYVGGSTARSGGAFWVPANPVLRKAGSGDTLDRAGTYIRSVVGESAPAERGAAFLDHGSATVEMLQRTTPMRLFWAKGYSDYHPELPGGSAVGRTCECRPFNVSVLGLERERLRPGLMKAGLPMPVTGADYKWMNLMARKPSKAFPRIFRRLAQGVAGLALKREYVAGGQALAAGLFAGVVRAGIPVWTETTLVRLLTEGDRVTGAVVACDGQEVTVTARRGVVLAAGGFDHDMALRHKYQSERLGEHESLGAEGNTGDGIRAALDVGAATDLMDQAWWFPAVAAMKGRPPMVMLAERALPGSFIVDHTGRRFVNEATDYMSFGQLVLDRERAGDPVESMWIVFDQRYRNSYIFGGGLFPRQPVPEAWIRAGIAHRADDPAALARAAGLPEGAFTETFRRFNDAAAAGTDADFRRGASAYDRYYGDPTVEPNPNLRPLTDGPFYAVKMTLSDLGTCGGVKADERARVLREDGSVVDGLYAIGNTAANAFGNTYPGAGATIGQGLVYGYIAAQDAAKSR
With B2, the Km in data set [3] is listed as 33.8 ± 4.9 µM; in data set [4] it was 38.2 ± 6.6 µM; in data set [5], 40.1 ± 8.7 µM; in [10] (pH 7.0, 30.0 °C), 24.57 ± 7.8 µM; in data set [6] it was 42.5 ± 5.8 µM; in [7], 107.9 ± 18.5 µM. Further, the Km was found to be 374.3 ± 74.5 µM in [8] and 347.4 ± 41.7 µM in data set [9].

B3: KstD3 (Rhodococcus ruber) (protein)
chain: MIKQEYDIVVVGSGAGGMTAALTAAHRGASVVLVEKAPHYGGSSARSGGGVWIPNNEVLGAAGVTDTPEAARTYLHSIIGDVVPAGKIDTYIDRGPEMLSFVLEHSALELQWVPGYSDYYPEAPGGRLGGRSVEPKPFDGKRLGDDLALLEPDYVKGPPNFVITQADYKWLNLLMRNPRGPVRAAKVGVRYLWARARRRHLLVRGQALMAGLRMGLRDAGVPLLLNTALTDLVVEDGVVRGVRVESDGQQRTVRARRGVVIASGGFEHNEQMRTQYQRAPIGTEWTVGAKANTGDGIRAGQSLGAAVDFMDDAWWGPSFPLTGGPWFALSERSLPGSMMVNAAGRRFVNESAPYVEAVHAMYGGRHGRGDGPGENIPCWMILDQRYRNRYTFAGITPRSPFPKRWLKAGVVVRAGSIAELAGKIGVPAAALTATVERFNGFARAGRDEDFGRGESGYDHYYGDPRNKPNPSLGVIDKAPFYAIKVVPGDLGTKGGLRTDADARVLREDGTVIEGLYAAGNASGPVMGHTYAGPGATIGPAMTFAYLAVLDALARPEQPAVPPVSETVEQH
Take B3: the Km in data set [3] is given as 43.6 ± 2.9 µM; in data set [10] (80 µM DCPIP as electron acceptor, 50 mM Tris pH 7, 30 °C), 181.1 ± 42.6 µM; in data set [6], 111.3 ± 4.0 µM.
